Assay [1] concerns the target T1, His-tagged & Twin Strep-tagged human IL-2Rβ & IL-2Rγ heterodimer protein (human, UniProt P14784 27-239; P31785 23-262).
T1 construct: also called Human IL-2Rβγ; human IL-2Rβγ (His)
T1 sequence 1: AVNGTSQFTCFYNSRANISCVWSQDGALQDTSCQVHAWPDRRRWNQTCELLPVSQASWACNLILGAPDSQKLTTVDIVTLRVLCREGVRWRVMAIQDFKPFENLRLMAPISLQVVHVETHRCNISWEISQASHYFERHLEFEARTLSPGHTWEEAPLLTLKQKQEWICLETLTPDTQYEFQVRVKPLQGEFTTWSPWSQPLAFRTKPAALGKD
T1 sequence 2: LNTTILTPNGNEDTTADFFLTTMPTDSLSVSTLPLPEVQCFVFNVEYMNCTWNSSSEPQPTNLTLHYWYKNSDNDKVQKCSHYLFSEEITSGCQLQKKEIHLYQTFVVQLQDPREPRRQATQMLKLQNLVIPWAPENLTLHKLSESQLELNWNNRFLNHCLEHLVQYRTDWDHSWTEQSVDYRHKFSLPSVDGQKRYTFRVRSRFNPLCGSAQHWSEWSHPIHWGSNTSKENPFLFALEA
Nature of the assay: BLI (OCTET RED96); His-tagged receptor heterodimer captured on anti-penta-HIS (HIS1K) biosensor, serially diluted fusion protein A1 in solution. The text has this:
(§1) Anti-PD-1/IL-2 fusion protein A1 was made by co-expression of SEQ ID NOs: 160 and 161 in CHO cells. OCTET® RED96 was used to study the interaction between anti-PD-1/IL-2 fusion protein A1 and human PD-1 or IL-2 receptors. For the binding study of the human PD-1, anti-human-Fc (AHC) biosensors were used to capture anti-PD-1/IL-2 fusion protein A1. The coated biosensors were associated with serially diluted His-tagged human PD-1 protein at predetermined concentrations. For the binding study of human IL-2 receptors, anti-penta-HIS (HIS1K) biosensors were used to capture human IL-2Rα or human IL-2Rβγ (His) proteins. The coated biosensors were associated with serially diluted anti-PD-1/IL-2 fusion protein A1 at predetermined concentrations.

In a further assay the target is T2, His-tagged human PD-1 (human, UniProt Q15116 25-167, limits assumed).
T2 construct: also called His-tagged human PD-1 protein
As to the kind of experiment: BLI (OCTET RED96); fusion protein A1 captured on anti-human-Fc (AHC) biosensor, serially diluted His-tagged human PD-1 in solution.
Source text: as §1

Assay [2] concerns the target T3, His-tagged IL-2Rα (CD25) protein (human, UniProt P01589 22-240).
T3 construct: also called Human IL-2Rα
T3 sequence: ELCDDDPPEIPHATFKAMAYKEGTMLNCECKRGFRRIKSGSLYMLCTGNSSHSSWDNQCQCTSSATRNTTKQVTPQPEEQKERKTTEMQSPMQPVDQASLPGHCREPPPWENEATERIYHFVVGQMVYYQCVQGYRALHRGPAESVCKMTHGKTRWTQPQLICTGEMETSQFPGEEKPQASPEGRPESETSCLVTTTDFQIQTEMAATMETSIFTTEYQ
Nature of the assay: BLI (OCTET RED96); His-tagged receptor captured on anti-penta-HIS (HIS1K) biosensor, serially diluted fusion protein A1 in solution.
Source text: as §1

In assay [3] the target is T4, AVITAG CD122/CD132 heterodimer (human, UniProt P14784 27-239; P31785 23-262).
T4 construct: also called IL-2Rβ/γ
T4 sequence 1: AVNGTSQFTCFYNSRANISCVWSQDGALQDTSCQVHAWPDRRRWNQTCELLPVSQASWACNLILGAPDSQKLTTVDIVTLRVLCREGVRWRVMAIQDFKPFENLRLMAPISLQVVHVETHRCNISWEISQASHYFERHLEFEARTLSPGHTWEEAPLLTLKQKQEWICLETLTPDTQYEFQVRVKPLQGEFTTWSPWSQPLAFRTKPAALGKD
T4 sequence 2: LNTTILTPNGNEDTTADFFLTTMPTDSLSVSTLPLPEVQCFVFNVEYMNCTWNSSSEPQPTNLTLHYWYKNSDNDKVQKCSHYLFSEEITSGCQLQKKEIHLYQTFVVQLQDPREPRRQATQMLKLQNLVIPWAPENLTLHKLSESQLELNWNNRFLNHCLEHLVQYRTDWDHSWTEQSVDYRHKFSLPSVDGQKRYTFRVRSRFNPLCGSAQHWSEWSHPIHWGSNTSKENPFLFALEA
As to the kind of experiment: BLI (OCTET RED96); receptor loaded on biosensor, IL-2 mutein in solution at 10 to 2,000 nM. The method, then: (§2) CD122 and AVITAG CD122/CD132 heterodimer were purchased from ACROBIOSYSTEMS, Inc. The protein samples were diluted in the OCTET® kinetic buffer. […] The association and dissociation sensorgram was fitted by global or local fitting using the OCTET® Data Analysis HT software.

The next assay addresses T5, CD122 (human, UniProt P14784 27-239).
T5 construct: also called IL-2Rβ; hIL-2 receptor
T5 sequence: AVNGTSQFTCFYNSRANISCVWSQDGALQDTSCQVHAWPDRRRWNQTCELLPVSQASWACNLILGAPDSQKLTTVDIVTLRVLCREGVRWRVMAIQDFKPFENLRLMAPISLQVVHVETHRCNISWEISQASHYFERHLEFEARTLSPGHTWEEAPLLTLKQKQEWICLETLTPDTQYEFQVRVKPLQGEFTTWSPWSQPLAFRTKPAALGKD
The assay is described as above. As for the experimental part:
as §2

Here are results for 14 molecules from patent US20260226126A1 (ANWITA BIOSCIENCES, published 2026).

T2 sequence (Q15116 25-167 limits assumed): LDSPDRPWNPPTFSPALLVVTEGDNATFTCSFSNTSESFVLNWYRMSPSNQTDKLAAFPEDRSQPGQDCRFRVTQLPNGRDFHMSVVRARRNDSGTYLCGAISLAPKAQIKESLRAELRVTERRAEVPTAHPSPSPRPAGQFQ

B1: Anti-PD-1/IL-2 fusion protein A1 (Fc fusion)
chain 1: QVQLLESGGGLVKPGGSLRLSCAASGRTYAMGWFRRAPGKESEFVAEIRWSSTFTDYADSVKGRFTISRDNAENSAYLQMNSLRAEDTAVYHCAAQTSQRGTLYDSYGQGTQVTVSSESKYGPPCPPCPAPEFLGGPSVFLFPPKPKDTLMISRTPEVTCVVVDVSQEDPEVQFNWYVDGVEVHNAKTKPREEQFNSTYRVVSVLTVLHQDWLNGKEYKCKVSNKGLPSSIEKTISKAKGQPREPQVCTLPPSQEEMTKNQVSLSCAVKGFYPSDIAVEWESNGQPENNYKTTPPVLDSDGSFFLVSRLTVDKSRWQEGNVFSCSVMHEALHNHYTQKSLSLSLGAGGGGSGGGGSGGGGSAPASSSTKKTQLQLEHLSLDLQMILNGIQSMEIDATTFKFYMPKKATELKHLQCLEEELKPLEEVLNLAQSKNFHLRPRDLISNINVIVLELKGSETTFMCEYADETATIVEFLNRWITFSESIISTLT
chain 2: QVQLLESGGGLVKPGGSLRLSCAASGRTYAMGWFRRAPGKESEFVAEIRWSSTFTDYADSVKGRFTISRDNAENSAYLQMNSLRAEDTAVYHCAAQTSQRGTLYDSYGQGTQVTVSSESKYGPPCPPCPAPEFLGGPSVFLFPPKPKDTLMISRTPEVTCVVVDVSQEDPEVQFNWYVDGVEVHNAKTKPREEQFNSTYRVVSVLTVLHQDWLNGKEYKCKVSNKGLPSSIEKTISKAKGQPREPQVYTLPPCQEEMTKNQVSLWCLVKGFYPSDIAVEWESNGQPENNYKTTPPVLDSDGSFFLYSRLTVDKSRWQEGNVFSCSVMHEALHNHYTQKSLSLSLGK
notes: The two chains form a knobs-into-holes heterodimer
As for B1, the results for the Kd (in assay [1]; in the assay with His-tagged human PD-1) were 0.012 µM and 0.005 µM, respectively. Moreover, the binding result in assay [2] was “no binding”.

B2: IL-2-IL-15 Chimera 2 (T3A, C125S) (ligand)
chain: APASSSTKKTQLQLEHLLLDLQMILNGIQSMEIDATTFKFYMPKKATELKHLQCLEEELKPLEEVLNLAQSKNFHLRPRDLISNINVIVLELKGSETTFMCEYADETATIVEFLNRWITFSQSIISTLT
notes: hIL-2 with N29-L40 replaced by an IL-15 hinge fragment-containing peptide; no fusion partner is stated
In the case of B2, the Kd (in general, a measure of binding affinity in units of concentration) came to 0.011 µM in assay [3] and 0.104 µM in the assay with CD122.

B3: IL-2-IL-15 Chimera 68 (T3A, C125S, Q126T, S130R) (ligand)
chain: APASSSTKKTQLQLEHLLLDLQMILNGIQSMEIDATTFKFYMPKKATELKHLQCLEEELKPLEEVLNLAQSKNFHLRPRDLISNINVIVLELKGSETTFMCEYADETATIVEFLNRWITFSTSIIRTLT
notes: no fusion partner is stated
For B3, the Kd in assay [3] is 0.032 µM; with CD122, 0.466 µM.

B4: IL-2-IL-15 Chimera 44 (T3A, L18C) (ligand)
chain: APASSSTKKTQLQLEHLCLDLQMILNGIQSMEIDATTFKFYMPKKATELKHLQCLEEELKPLEEVLNLAQSKNFHLRPRDLISNINVIVLELKGSETTFMCEYADETATIVEFLNRWITFCQSIISTLT
notes: no fusion partner is stated
Consider B4, for which the Kd in assay [3] was 0.012 µM.

B5: IL-2-IL-15 Chimera 58 (T3A, L18C, Q126E) (ligand)
chain: APASSSTKKTQLQLEHLCLDLQMILNGIQSMEIDATTFKFYMPKKATELKHLQCLEEELKPLEEVLNLAQSKNFHLRPRDLISNINVIVLELKGSETTFMCEYADETATIVEFLNRWITFCESIISTLT
notes: no fusion partner is stated
In the case of B5, the Kd in assay [3] was 0.229 µM; with CD122, 0.188 µM.

B6: IL-2-IL-15 Chimera 69 (T3A, L18S, C125S, Q126E) (ligand)
chain: APASSSTKKTQLQLEHLSLDLQMILNGIQSMEIDATTFKFYMPKKATELKHLQCLEEELKPLEEVLNLAQSKNFHLRPRDLISNINVIVLELKGSETTFMCEYADETATIVEFLNRWITFSESIISTLT
notes: no fusion partner is stated
B6 displayed a Kd in assay [3] of 0.322 µM.

B7: IL-2-IL-15 Chimera 42 (E15K, N88A, C125S) (ligand)
chain: APTSSSTKKTQLQLKHLLLDLQMILNGIQSMEIDATTFKFYMPKKATELKHLQCLEEELKPLEEVLNLAQSKNFHLRPRDLISAINVIVLELKGSETTFMCEYADETATIVEFLNRWITFSQSIISTLT
notes: no fusion partner is stated
As for B7, the Kd in assay [3] was 0.053 µM.

B8: IL-2-IL-15 Chimera 46 (T3A, C125S, Q126E) (ligand)
chain: APASSSTKKTQLQLEHLLLDLQMILNGIQSMEIDATTFKFYMPKKATELKHLQCLEEELKPLEEVLNLAQSKNFHLRPRDLISNINVIVLELKGSETTFMCEYADETATIVEFLNRWITFSESIISTLT
notes: no fusion partner is stated
The molecule B8 displayed a Kd in assay [3] of 0.219 µM.

B9: IL-2-IL-15 Chimera 54 (T3A, C125S, Q126T) (ligand)
chain: APASSSTKKTQLQLEHLLLDLQMILNGIQSMEIDATTFKFYMPKKATELKHLQCLEEELKPLEEVLNLAQSKNFHLRPRDLISNINVIVLELKGSETTFMCEYADETATIVEFLNRWITFSTSIISTLT
notes: no fusion partner is stated
Consider B9, for which the Kd in assay [3] is 0.03 µM; in the assay with CD122, 0.65 µM.

B10: IL-2-IL-15 Chimera 64 (T3A, L18C, Q126S) (ligand)
chain: APASSSTKKTQLQLEHLCLDLQMILNGIQSMEIDATTFKFYMPKKATELKHLQCLEEELKPLEEVLNLAQSKNFHLRPRDLISNINVIVLELKGSETTFMCEYADETATIVEFLNRWITFCSSIISTLT
notes: no fusion partner is stated
Turning to B10, the affinity in assay [3], expressed as Kd, was 0.382 µM.

B11: IL-2-IL-15 Chimera 56 (T3A, C125S, S130R) (ligand)
chain: APASSSTKKTQLQLEHLLLDLQMILNGIQSMEIDATTFKFYMPKKATELKHLQCLEEELKPLEEVLNLAQSKNFHLRPRDLISNINVIVLELKGSETTFMCEYADETATIVEFLNRWITFSQSIIRTLT
notes: no fusion partner is stated
Turning to B11, the Kd in assay [3] was 0.012 µM; with CD122, 0.808 µM.

B12: IL-2-IL-15 Chimera 29 (I92A, C125S) (ligand)
chain: APTSSSTKKTQLQLEHLLLDLQMILNGIQSMEIDATTFKFYMPKKATELKHLQCLEEELKPLEEVLNLAQSKNFHLRPRDLISNINVAVLELKGSETTFMCEYADETATIVEFLNRWITFSQSIISTLT
notes: no fusion partner is stated
In turn, B12 had a Kd in assay [3] of 0.0035 µM. In other words, the single-digit nanomolar range.

B13: hIL-2 Mutein (T3A, F42A, Y45A, L72G, C125S) (ligand)
chain: APASSSTKKTQLQLEHLLLDLQMILNGINNYKNPKLTRMLTAKFAMPKKATELKHLQCLEEELKPLEEVLNGAQSKNFHLRPRDLISNINVIVLELKGSETTFMCEYADETATIVEFLNRWITFSQSIISTLT
notes: no fusion partner is stated
As to B13, the values for the Kd (in assay [3]; in the assay with CD122) were 0.0068 µM and 0.55 µM, respectively.

B14: hIL-2 Mutein (T3A, R38E, F42A, K76E, C125S) (ligand)
chain: APASSSTKKTQLQLEHLLLDLQMILNGINNYKNPKLTEMLTAKFYMPKKATELKHLQCLEEELKPLEEVLNLAQSENFHLRPRDLISNINVIVLELKGSETTFMCEYADETATIVEFLNRWITFSQSIISTLT
notes: no fusion partner is stated
In assay [3], B14 returned a Kd of 0.001 µM. That is a single-digit nanomolar value.
